Measured values taken from paper PMC5840397.

Experiments:
[1] = target: C-terminally His-tagged human ECRG4(32–148) (human) (UniProt Q9H1Z8); experiment: SPR; ProteOn XPR36, GLM chip; His-tagged ECRG4 peptides captured by immobilised anti-His antibody; 2 × CTLD–Fc injected at 15.6–250 nM, 60 s association, 120 s dissociation; HBS (10 mM HEPES pH 7.4, 150 mM NaCl, 3 mM EDTA, 0.05% P20); Langmuir model
[2] = target: C-terminally His-tagged human ECRG4(71–148) (human) (UniProt Q9H1Z8); experiment: as above
Chain of C-terminally His-tagged human ECRG4(71–148) (human) (Q9H1Z8 71-148): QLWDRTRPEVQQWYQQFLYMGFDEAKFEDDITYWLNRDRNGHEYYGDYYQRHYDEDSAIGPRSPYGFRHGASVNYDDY

[3] = target: C-terminally His-tagged human ECRG4(71–132) (human) (UniProt Q9H1Z8); experiment: as above
Chain of C-terminally His-tagged human ECRG4(71–132) (human) (Q9H1Z8 71-132): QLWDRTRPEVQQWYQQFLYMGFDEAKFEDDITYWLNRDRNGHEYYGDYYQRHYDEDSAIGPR

[4] = target: LOX-1 (Homo sapiens) (UniProt P78380); details: cited from earlier work

Chain of CRP (P02741 19-224): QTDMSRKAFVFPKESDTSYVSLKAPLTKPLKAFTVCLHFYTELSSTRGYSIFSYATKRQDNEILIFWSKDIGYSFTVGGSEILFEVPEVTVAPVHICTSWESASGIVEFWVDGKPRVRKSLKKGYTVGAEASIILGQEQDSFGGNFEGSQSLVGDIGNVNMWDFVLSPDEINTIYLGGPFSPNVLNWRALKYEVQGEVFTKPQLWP
Chain of C-terminally His-tagged human ECRG4(32–148) (human) (Q9H1Z8 32-148): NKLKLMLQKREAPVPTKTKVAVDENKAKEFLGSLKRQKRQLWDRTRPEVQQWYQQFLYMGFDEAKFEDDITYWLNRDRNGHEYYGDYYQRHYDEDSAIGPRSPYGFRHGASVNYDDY

Substance	Kd [1] [nM]	Kd [2] [nM]	Kd [3] [nM]	Kd [4] [nM]
2 × CTLD–Fc (two human LOX-1 CTLDs in tandem, Fc-fused) (Fc fusion)	10	10	10	–
CRP (from UniProt P02741)	–	–	–	160
